Data published in the DeepSol protein solubility set.

Assay: soluble on expression in E. coli; label from the status in PepcDB or PDB records

Sequence	soluble on expression in E. coli
VPLTVADIDRWNAQAVREVFHAASARAEVTFEASRQLAALSIFANSGGKTAEAAAHHNAGIRRDLDAHGNEALAVARAADRAADGIVKVQSELAALRHAAAAAELTIDALINRVVPIPGLRSTEAQWARTLAKQTELQAELDAIMAEANAVDEELASAVNMADGDAPIPADSGPPVGPEGLTPTQLASDANEERLREERARLQAHLERLQAEYDQLSVRAARDYHNGILDGDAVGRLAALTDELSAARGRLGELDAVDEALSRAPETYLTQLQIPEDPNQQVLAAVAVGNPDTAANVSVTVPGVGSTTRGALPGMVTEARDLRSEVIRQLNAAGKPASVATIAWMGYHPPPNPLDTGSAGDLWQTMTDGQAHAGAADLSRYLQQVRANNPSGHLTVLGHSYGSLTASLALQDLDAQSAHPVNDVVFYGSPGLELYSPAQLGLDHGHAYVMQAPHDLITNLVAPLAPLHGWGLDPYLTPGFTELSSQAGFDPGGIWRDGVYAHGDYPRSFLDAAGQPQLRMSGYNLAAIAAGLPDNTVGPPLLPPILGGGMPAAPGPALRGGR	not soluble
VQASDRTWQSNFIRRWYFTETVEYRPLVKYDASMSWDERTVSALEGAFRSEVRARRVNGPHRDVIVSLDGAEFLVRWLTTGWPRQVAEALHATSRPDILAAPTMSPGARKAAHDAGVGWVDESGAADIHYRNTSTGTTLVIETKGAPPAPLDARIGWRRATLAVCEALLANIAGPTVASVVEATGLSMGSSAQALKFLEKNGHLASATARGPKSARLIVDRDALLDAYAEAADKLRSPISISTGVLWRDPTAGVVKAGQLWDAAGIEWAATSALSASLLAPMQTEIAPMEIYVPGRSWSDLRRAAMAAGLQEIAGGRLILRFFPTPACARLTEQNLQGFRSMLWPRVYADLRTAGVRGEDAAEHLREAMTK	not soluble
VRAPVTKVHGGAGSAQRMPLCDKCGSGIVGAVVKARDKYRHPECFVCADCNLNLKQKGYFFVEGELYCETHARART	soluble
VRQYGDMPSRVVVLHGGPGGAGEVEPLARELGNRGHAVLEPFQTCQTVGGQVDELSSHIERFCAPPVTVIGWSWGAWLGCLLAAQRGMLVRRLILVGSGPFEESYASAIRTTKNSRLTKDQRKEISQLRPTEGDPAEVARFIALSDIADTYARDTSQQPFVAFDGAIHAAVWAEAVDMRRNGALLEAVCAIRCPVVAIHGDYDPRPSEGVQIPLRAALPSADFVQLERCGHKPWQETFAKADFYRALEA	not soluble
VSDQFDAKAFLKTVTSQPGVYRMYDAGGTVIYVGKAKDLKKRLSSYFRSNLASRKTEALVAQIQQIDVTVTHTETEALLLEHNYIKLYQPRYNVLLRDDKSY	soluble
VSELSVATGAVSTASSSIPMPAGVNPADLAAELAAVVTESVDEDYLLYECDGQWVLAAGVQAMVELDSDELRVIRDGVTRRQQWSGRPGAALGEAVDRLLLETDQAFGWVAFEFGVHRYGLQQRLAPHTPLARVFSPRTRIMVSEKEIRLFDAGIRHREAIDRLLATGVREVPQSRSVDVSDDPSGFRRRVAVAVDEIAAGRYHKVILSRCVEVPFAIDFPLTYRLGRRHNTPVRSFLLQLGGIRALGYSPELVTAVRADGVVITEPLAGTRALGRGPAIDRLARDDLESNSKEIVEHAISVRSSLEEITDIAEPGSAAVIDFMTVRERGSVQHLGSTIRARLDPSSDRMAALEALFPAVTASGIPKAAGVEAIFRLDECPRGLYSGAVVMLSADGGLDAALTLRAAYQVGGRTWLRAGAGIIEESEPEREFEETCEKLSTLTPYLVARQ	soluble
VSIKKSSGLNFDNTAIAINAGKGLEFDTNTSESPDINPIKTKIGSGIDYNENGAMITKLGAGLSFDNSGAITIGNKNDDKLTLWTTPDPSPNCRIHSDNDCKFTLVLTKCGSQVLATVAALAVSGDLSSMTGTVASVSIFLRFDQNGVLMENSSLKKHYWNFRNGNSTNANPYTNAVGFMPNLLAYPKTQSQTAKNNIVSQVYLHGDKTKPMILTITLNGTSESTETSEVSTYSMSFTWSWESGKYTTETFATNSYTFSYIAQE	soluble
VTDTDLITAGESTDGKPSDAAATDPPDLNADEPAGSLATMVLPELRALANRAGVKGTSGMRKNELIAAIEEIRRQANGAPAVDRSAQEHDKGDRPPSSEAPATQGEQTPTEQIDSQSQQVRPERRSATREAGPSGSGERAGTAADDTDNRQGGQQDAKTEERGTDAGGDQGGDQQASGGQQARGDEDGEARQGRRGRRFRDRRRRGERSGDGAEAELREDDVVQPVAGILDVLDNYAFVRTSGYLPGPHDVYVSMNMVRKNGMRRGDAVTGAVRVPKEGEQPNQRQKFNPLVRLDSINGGSVEDAKKRPEFGKLTPLYPNQRLRLETSTERLTTRVIDLIMPIGKGQRALIVSPPKAGKTTILQDIANAITRNNPECHLMVVLVDERPEEVTDMQRSVKGEVIASTFDRPPSDHTSVAELAIERAKRLVEQGKDVVVLLDSITRLGRAYNNASPASGRILSGGVDSTALYPPKRFLGAARNIEEGGSLTIIATAMVETGSTGDTVIFEEFKGTGNAELKLDRKIAERRVFPAVDVNPSGTRKDELLLSPDEFAIVHKLRRVLSGLDSHQAIDLLMSQLRKTKNNYEFLVQVSKTTPGSMDSD	not soluble
VTRKSLLERCMEMEKEGYTGCLLSGGMDSRLKVPLDKFKDEIKAIKEKTKLKINAHVGFVDESDLEWLKYIDVVSLDFVGDNEVIKRVYKIDKKVEDYLRVLDLLTENGIRVAPHITIGLDFGKVHWEFKAIDILVNYPIDVLVLDVLIPTPGTEMANVPKVPVDEAIRVVKYAREKFSGELSIGCMRPFGEWRVKFDREAILAGVDRI	not soluble
VVTSVADENVASRIASWGTGPAPDPRLDYAHAHLKGRRGRSPARPNAPIGARSFAVGRKICRVERFTLLEHGFVGHALHRVPCAGLVALVMSACSLAVCREVGNYAQRRVGRFAFFEQTFVRHALTPRCSRTDSKTSYTQLNRICKFPPHWV	not soluble
VVVEDSGASFGESLLDTTSEPGKILVKRISGGSGITVTDYGDQVEIEASVTDALSLMYSTSTGGPASIAANALTDFDLSGALTVNSVGTGLTKSAAGIQLAAGKSGLYQITMTVKNNTVTTGNYLLRVKYGSSDFVVACPASSLTAGGTISLLIYCNVLGVVSLDVLKFSLCNDGAALSNYIINITAAKIN	soluble
WIVQKQKKWSSDPVGTQKNVFDLLIKKAQKTTFGKDHAFDSIQSHADYCRLVPVREYEGFKEYIELVKQGTQDVLWPGIPLYFAKTSGTTSGVKYIPITKDSIGYHINGAKDALLNYVHQTGKSEFLDKKLIFLSGSPIMEKKNGIYIGRLSGIVNHHVPGYLRGNQLPSFETNCVDDWESKLEKIVDETIDQDMSLISGIPPWVQMYFDRIEERTHKKIKDVFPSFSLLVYGGVNFSPYKRKLIESIGKEIDTVETYPASEGFIAFQDIPGQAGLLLLLNSGIFYEFIPVEEYGSANPTRLTIGEVKTDVNYALVMSTNAGLFAYSIGDTVKFVSTAPYRIVVTGRVKHFISAFGEHVIGEEVEQAMKNALLKHPEVSITEFTVAPQVTPEEGLPYHEWLIEFISMPADMDQFAHDLDQEMIQKNIYYKDLIVGNILRPLVITSISAGGF	not soluble
WQFTPNTGGNTITKVEAENMKIGGTYAGKISAPFDGVALYANADYVSYSQYFANSTHNISVRGASSNAGTAKVDLVIGGVTVGSFNFTGKTPTVQTLSNITHATGDQEIKLALTSDDGTWDAYVDFIEFSL	soluble
WTKKTLGSLFELKKGEMLEKELLAPDGKYEYFNGGIKASGRTNEFNTFKNTISIIIGGSCGYVRLADKDYFCGQSSCTLTVLDPLEIDLKFAYYALKSQEEKITSLASGTTIKNIRLSDLKDLPIPLVKSIQDQRTIAHALSVFDL	soluble
WVPHELTENQKNRRFEVSSSLILRNHNEPFLDRIVTCDEKWILYDNRRRSAQWLDQEEAPKHFPKPILHPKKVMVTIWWSAAGLIHYSFLNPGETITSEKYAQEIDEMNQKLQRLQLALVNRKGPILLHDNARPHVAQPTLQKLNELGYEVLPHPPYSPDLLPTNYHVFKHLNNFLQGKRFHNQQDAENAFQEFVESQSTDFYATGINQLISRWQKCVDCNGSYFD	soluble
WYCLISHGTRPKYWFDIEVYRQGYYPRCGQLRSWIARKDGIWFTRKYHSPPGHVLDWKIQ	not soluble
YDSEVIEYAKEQENIISKLEYRVYKHDDGRSVNRQDLMRDYARVLYSSSFRRLQGKMQLLGVDASKFNRNRLTHSLEVAQIARSIAYDLELNHTVVAETASLAHDIGNPPFGHYGEVVLNDLSLACGGYEGNAQAFRILRTLEKKHYAYPGLNLNVRTLMAITKYFFNKHQNNKKFLYDADYEFLKTELDSKGVTVTKSIDAEIMDLADEIAYAAHDLEDALSFGMISLGEIVHEFSISDKFKDAYPTMTDIAKEAQNVAMKASRSGTSEEYAIVLKKELTSMIVNILCSDIGLVDGCLGYKRHAKLAEGLKKLLFKAILRKKDIQLYERRGEQIIRGLFEVYSDEKYNKDNMLLPPELRAINDCKTRLVTDYISGMMDSYAAQEYEKYFGKGSADKLYFK	soluble
YEGEKSVVVPVSATYKELHKLMEKEFKGKEFSVVDYDDDETILLIAVQSDKLYGTYYQFDTRTKKFTLLYDLMPQLKEEDMAEMRPIKFKSRDGLTIHGFITLPKAALEGKKVPLIVNPHGGPQGIRDSWGFNPETQLFASRGYATLQVNFRISGGYGKEFLRAGFKQIGRKAMDDVEDGVRYAISQGWVDPDRIAIYGASHGGYATLMGLVKTPDLYACGVDYVGVSNIYTFFDSFPEYWKPFKEMVKEIWYDLDNPEEAAIAKEVSPFFQIDKINKPLFVVQGANDPRVNINESDQIVTALRARGFEVPYMVKYNEGHGFHREENSMELYRAMLGFFAKHLK	not soluble
YHKLRLAIKEICKTDGIPNIKWGMYIAFGEKLLKSYLKMKAGSASSDMIAEYINNAISAFSSRTGISQETAQKIADFITSNY	soluble
YNSLSFLMRHDMIAGFHWFGPWGRDTFISMPGVLLVSGRYNEARRVLEHYAERIQDGMIPNTQDVEALRFSADTSLWFIYAVQKYLEYAGDDDFARQMLVPIKSIITAYIKGNSMFHLDDDLVTLTGSPLTWMDAMVSGKPVTPRIGKPIEINALWYNALSFYSRTAHDITGEDTEMFSKLARRIKQKFRAKFIKGDAVLDVSDPDDMKFRPNFLIPYFLPYPLLNDRKFVDLAWEKLVTPYGLRTLSPDDPDYVPTYSGPQPERDMAYHNGTVWPWLAGIFITAAVKTGYDKHALLEKFAPLFSMSRIPEIFDGSGTGIPKGCIMQAWSHGEIARAYFEDLRGGRS	not soluble
